For three molecules, IC50, Kd and EC50 results are on record in patent publication US20180000964A1 (Genentech, published 2018).

One may read the IC50 as the concentration that inhibits the measured activity by half. A high value points to weaker potency. One may read the Kd as the free concentration of one partner at which half of the binding sites on the other are occupied at equilibrium, for simple one-to-one binding. A lower Kd goes with tighter binding. Usually EC50 stands for the concentration giving half of the maximal effect. Low readings indicate higher potency in that assay, high ones lower potency in that assay.

The target of experiment [1] is murine basigin extracellular domain, murine Fc tagged (murine). Briefly: competitive ELISA on coated murine basigin against biotinylated bispecific antibody. On the technique in general: An ELISA detects its analyte on a solid surface through an enzyme-linked reagent.
Experiment [2] has as its target T1, murine basigin extracellular domain, murine Fc tagged (murine).
T1 construct: also called mBsg ECD; murine basigin (ELISA antigen)
T1 chain: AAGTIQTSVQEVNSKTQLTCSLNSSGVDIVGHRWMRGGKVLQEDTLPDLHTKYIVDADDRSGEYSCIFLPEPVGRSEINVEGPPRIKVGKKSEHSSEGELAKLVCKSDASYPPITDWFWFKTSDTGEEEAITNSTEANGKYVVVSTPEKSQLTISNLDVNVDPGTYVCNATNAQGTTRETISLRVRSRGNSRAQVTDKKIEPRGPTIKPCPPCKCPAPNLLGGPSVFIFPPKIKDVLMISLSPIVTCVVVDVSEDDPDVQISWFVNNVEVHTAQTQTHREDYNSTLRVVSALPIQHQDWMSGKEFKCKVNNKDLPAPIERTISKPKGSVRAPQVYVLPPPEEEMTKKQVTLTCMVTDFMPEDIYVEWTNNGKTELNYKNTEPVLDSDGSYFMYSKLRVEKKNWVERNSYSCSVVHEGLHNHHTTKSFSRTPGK
Briefly: Biacore; 'Binding affinity (nM)'; form of the antigen not stated. A general note: Surface plasmon resonance follows binding to a sensor surface in real time, without labels.

The target of experiment [3] is T1, murine basigin extracellular domain, …. Description: competitive ELISA on coated murine basigin against biotinylated bispecific antibody. The method, then: Nunc 96-well Maxisorp immunoplates were coated overnight at 4° C. with antigen (2 μg/ml) and blocked for 1 hour at room temperature with blocking buffer PBST. Serial dilutions of bivalent or bispecific antibodies were subsequently added to the plates with a sub-saturating concentration of biotinylated bispecific antibody at room temperature for 1 hour. Plates were washed with wash buffer (PBS with 0.05% Tween 20) and incubated for 30 minutes with horseradish peroxidase (HRP)-conjugated streptavidin, and developed with tetramethylbenzidine (TMB) substrate. Absorbance was measured spectrophotometrically at 650 nm.

Another experiment has as its target T2, murine Glut1 (on cells) (murine, UniProt P17809 1-492).
T2 construct: whole, on cells; also called glucose transporter 1; Slc2a1
T2 sequence (looked up): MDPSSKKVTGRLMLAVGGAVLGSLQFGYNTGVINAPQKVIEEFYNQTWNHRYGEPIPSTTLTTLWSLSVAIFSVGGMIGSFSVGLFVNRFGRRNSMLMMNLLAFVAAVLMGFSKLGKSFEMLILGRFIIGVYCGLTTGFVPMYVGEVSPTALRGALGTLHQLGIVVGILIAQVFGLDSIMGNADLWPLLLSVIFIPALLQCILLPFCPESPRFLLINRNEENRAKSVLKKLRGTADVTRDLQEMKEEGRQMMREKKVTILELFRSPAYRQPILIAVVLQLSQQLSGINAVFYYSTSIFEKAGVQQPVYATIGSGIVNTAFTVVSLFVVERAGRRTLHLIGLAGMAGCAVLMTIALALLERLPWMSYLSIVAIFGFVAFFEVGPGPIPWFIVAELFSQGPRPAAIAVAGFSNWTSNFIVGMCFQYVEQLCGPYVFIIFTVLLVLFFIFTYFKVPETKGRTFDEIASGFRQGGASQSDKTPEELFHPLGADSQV
Description: flow cytometry (MFI) on HEK293 cells stably expressing Glut1; bivalent (monospecific) anti-Glut1, not the bispecific anti-Glut1/BACE1. The method, then:
Purified antibodies were screened on 293 cells transfected with the corresponding antigens. Cells were collected from flasks/dishes, washed with phosphate-buffered saline (PBS), and added to 96-well U-bottom plates (BD Falcon 353077, BD, Franklin Lakes, N.J.) at 1,000,000 cells per well. Samples were added to cells (100 μL/well) and incubated at 4° C. for 30-60 minutes. Plates were then centrifuged (1200 rpm, 5 minutes, 4° C.) and washed twice with PBS/1% FBS (200 μl per well). R-Phycoerythrin-conjugated Ziege anti-human IgG Fc (Jackson ImmunoReseach Laboratories Inc. (West Grove, Pa.); 109-116-098; 100 μl diluted in PBS) was then added and the plates incubated at 4° C. (covered) for 30 minutes. After the final wash, the cells were fixed in PBS containing 1% formalin, and read using a FACSCalibur™ flow cytometer (BD Biosciences, San Jose, Calif.). Mean fluorescence intensity (MFI) of each sample was then measured using the FlowJo software (Treestar, Inc., Ashland, Oreg.).
A general note: A flow cytometer gives signals particle by particle.

Read-outs that look alike come from different tables or passages of the source.

B1: anti-Bsg^A (antibody, V domains shown)
VH: EVQLVESGGGLVLPGRSMKLSCAASGFTFRTYYMAWVRQAPTKGLEWVASISIGGDNTYYRDSVMGRFTISRDDAKSTLHLQMDNLRSEDTATYYCVRLRGYFDYWGQGVMVTVSS
VL: EIVLTQSPATMPASPGEKVTLTCRASSSIRYIYWYQQKSGTSPKLWIYDTSKLASGVPNRFSGSGSGTSYSLTISSMETEDTATYYCQQGRSYPLTFGSGTKLEIK
notes: also called bivalent (monospecific) anti-Bsg^A
As for B1, the IC50 in experiment [1] was 106 nM; in experiment [3], 7.1 nM. The same molecule showed a Kd in experiment [2] of 13.5 nM.

B2: anti-Bsg^B (antibody, V domains shown)
VH: EVQLVESGGGLVQPGRSLKLSCVASGFTFNNYWMTWIRQAPGKGLEWFASITNTGGSTYYPDSVKGRFTISRDNAQSTLYLQTNSLRPEDTATYYCARRDGSYYPYYWYFDLWGPGTTVTVSS
VL: NTVMTQSPTSMFISVGDRVTMNCKASRSVGTNVDWYQQKTGQSPTLLFYGASNRYIGVPDRFTGSGSGTDFTLTISNMQAEDLAVYYCLQYNYNWAFGGGTKLELK
notes: also called bivalent (monospecific) anti-Bsg^B
Regarding B2, the IC50 in experiment [1] was 127 nM; in experiment [3], 17.5 nM. Besides, in experiment [2], the Kd came to 102 nM.

B3: anti-Glut1 antibody (antibody, V domains shown)
VH: QVQLQQPGSVLVRPGASVKLSCKASGYTFTGSWLHWAKQRPGQGLEWIGEIHPYSGNTNYNERFKGKATLTVDTPSSTAYVDLRSLTFEDSAVYYCAKEGGWFLRIYGMDYWGQGTSVTVSS
VL: DIVLTQSPSSLSASLGDTITITCHASQNINVWLSWYQQKPGNIPKLLIYKASNLHSGVPSRFSGSGSGTGFTLTISSLQPEDIATYYCQQGQTFPYTFGGGTRLEIK
notes: Raised by DNA immunization with hGlut1 cDNA; also called bivalent (monospecific) anti-Glut1
In the case of B3, the EC50 with murine Glut1 (on cells) amounted to 0.6 µg/mL.
